Assay results taken from the supplement of paper PMC9112550, “Optimization of the antimicrobial peptide Bac7 by deep mutational scanning” (BMC Biology, 2022).

Test system: Escherichia coli TOP10
Assay: shrunken log2 fold change of peptide-encoding DNA abundance (4.5 h post-induction vs induction); higher = less antimicrobial activity (less host growth inhibition)
Conditions: time post-induction: 4.5 h; library: site-saturation at positions 5, 18, 19, 20
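Also: peptides expressed intracellularly from a pBAD plasmid library in pooled LB shake-flask culture, induced with 0.3% L-arabinose, DNA abundance read by NGS, three biological replicates, DESeq2 with apeglm shrinkage.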

Sequence | shrunken log2 fold change
RRIRRRPPRLPRPRPRPSYAPRP | 0.0616
RRIRRRPPRLPRPRPRPYNLPRP | -0.233
RRIRSRPPRLPRPRPRPGYQPRP | -0.147
RRIRSRPPRLPRPRPRPYAHPRP | -0.131
RRIRDRPPRLPRPRPRPGFCPRP | 0.567
RRIRGRPPRLPRPRPRPKAMPRP | 0.147
RRIRARPPRLPRPRPRPEAPPRP | 1.11
RRIRNRPPRLPRPRPRPTPRPRP | 0.677
RRIRERPPRLPRPRPRPWLCPRP | -0.0006
RRIRTRPPRLPRPRPRPIFMPRP | 0.0645
RRIRPRPPRLPRPRPRPCRYPRP | 0.0858
RRIRFRPPRLPRPRPRPFMVPRP | -0.654
RRIRWRPPRLPRPRPRPDPGPRP | -0.041
RRIRKRPPRLPRPRPRPHFCPRP | -0.167
RRIRARPPRLPRPRPRPLKAPRP | 0.16
RRIRTRPPRLPRPRPRPSNSPRP | -1.22
RRIRERPPRLPRPRPRPMKGPRP | -0.0658
RRIRARPPRLPRPRPRPRELPRP | 0.496
RRIRFRPPRLPRPRPRPDKQPRP | -0.0106
RRIRCRPPRLPRPRPRPDIYPRP | -0.174
RRIRERPPRLPRPRPRPEKAPRP | -0.0229
RRIRSRPPRLPRPRPRPNEDPRP | -0.0395
RRIRLRPPRLPRPRPRPPEPPRP | 0.232
RRIRWRPPRLPRPRPRPSNYPRP | -0.707
RRIRSRPPRLPRPRPRPVSPPRP | 0.155

Sequence | shrunken log2 fold change
RRIRIRPPRLPRPRPRPWTLPRP | -0.0808
RRIRWRPPRLPRPRPRPEYAPRP | 0.467
RRIRMRPPRLPRPRPRPAQRPRP | 0.987
RRIRWRPPRLPRPRPRPVPPPRP | 0.372
RRIRDRPPRLPRPRPRPWLQPRP | 0.133
RRIRGRPPRLPRPRPRPDLFPRP | 0.723
RRIRRRPPRLPRPRPRPPMGPRP | 0.554
RRIRWRPPRLPRPRPRPQNDPRP | -0.0722
RRIRDRPPRLPRPRPRPCWMPRP | -0.0868
RRIRCRPPRLPRPRPRPEHFPRP | -0.0319
RRIRARPPRLPRPRPRPDQWPRP | 0.493
RRIRQRPPRLPRPRPRPAGAPRP | 0.666
RRIRFRPPRLPRPRPRPVTHPRP | -0.303
RRIRPRPPRLPRPRPRPHFLPRP | -0.168
RRIRVRPPRLPRPRPRPYHPPRP | -0.406
RRIRGRPPRLPRPRPRPIHTPRP | 0.0205
RRIRTRPPRLPRPRPRPFTQPRP | -0.487
RRIRDRPPRLPRPRPRPKGSPRP | -0.145
RRIRKRPPRLPRPRPRPVGQPRP | 0.0743
RRIRGRPPRLPRPRPRPSMYPRP | 0.173
RRIRLRPPRLPRPRPRPQQRPRP | -0.299
RRIRGRPPRLPRPRPRPAIIPRP | 0.134
RRIRRRPPRLPRPRPRPMGTPRP | 0.241
RRIRKRPPRLPRPRPRPFHFPRP | -0.0346
RRIRSRPPRLPRPRPRPMADPRP | -0.0211

Sequence | shrunken log2 fold change
RRIRDRPPRLPRPRPRPKDSPRP | -0.0525
RRIRMRPPRLPRPRPRPVVIPRP | -0.174
RRIRMRPPRLPRPRPRPKWFPRP | 0.275
RRIRERPPRLPRPRPRPRQYPRP | -0.369
RRIRWRPPRLPRPRPRPHLEPRP | -0.16
RRIRKRPPRLPRPRPRPWFLPRP | -0.157
RRIRCRPPRLPRPRPRPLQAPRP | 0.646
RRIRMRPPRLPRPRPRPFQVPRP | 0.0921
RRIRHRPPRLPRPRPRPLAQPRP | 0.00325
RRIRYRPPRLPRPRPRPVEVPRP | -0.282
RRIRERPPRLPRPRPRPWMYPRP | -0.508
RRIRTRPPRLPRPRPRPTPNPRP | 0.293
RRIRVRPPRLPRPRPRPPINPRP | 0.0484
RRIRNRPPRLPRPRPRPSTFPRP | -0.276
RRIRPRPPRLPRPRPRPRPIPRP | 0.27
RRIRFRPPRLPRPRPRPREHPRP | 0.0409
RRIRRRPPRLPRPRPRPIRDPRP | 0.196
RRIRIRPPRLPRPRPRPTRMPRP | 0.0519
RRIRGRPPRLPRPRPRPQMKPRP | 0.29
RRIRTRPPRLPRPRPRPLPCPRP | 0.0112
RRIRFRPPRLPRPRPRPDVTPRP | -0.302
RRIRPRPPRLPRPRPRPSHAPRP | -0.166
RRIRARPPRLPRPRPRPDWTPRP | 0.0425
RRIRRRPPRLPRPRPRPTKHPRP | 0.124
RRIRIRPPRLPRPRPRPQDPPRP | -0.235
